According to patent US20110033448:

Target: T1, hCAP18 (propeptide of LL-37), P49913
T1 chain: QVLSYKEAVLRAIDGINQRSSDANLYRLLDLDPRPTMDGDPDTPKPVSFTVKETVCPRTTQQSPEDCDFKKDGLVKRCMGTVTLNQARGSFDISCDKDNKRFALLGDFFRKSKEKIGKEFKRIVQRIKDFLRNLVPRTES

B1: Proteinase 3 (protein)
chain: IVGGHEAQPHSRPYMASLQMRGNPGSHFCGGTLIHPSFVLTAAHCLRDIPQRLVNVVLGAHNVRTQEPTQQHFSVAQVFLNNYDAENKLNDVLLIQLSSPANLSASVATVQLPQQDQPVPHGTQCLAMGWGRVGAHDPPAQVLQELNVTVVTFFCRPHNICTFVPRRKAGICFGDSGGPLICDGIIQGIDSFVIWGCATRLFPDFFTRVALYVDWIRSTLR
Western blot of cleavage of the 4 kD LL-37 peptide from hCAP18 in supernatants of activated neutrophils: the cleavage of the 4 kD LL-37 peptide can be blocked by pretreatment of neutrophils with the proteinase 3 inhibitors
